Assay results reported in US20190194350A1 (UNIVERSITAT STUTTGART, published 2019).

Experiments:
[1] = target: T1, HER3-Fc fusion protein (Fc fusion protein of the extracellular domain of human HER3, limits not stated at the … (human, UniProt P21860 20-643)); test: quartz crystal microbalance (Attana), IgG 3-43 on chip, HER3-Fc as analyte
T1 construct: also called wild-type HER3-Fc; human HER3-Fc fusion protein; not shown: human Fc region

[2] = target: T2, HER3 on HER3-expressing tumor cells (human, UniProt P21860 20-1342); test: flow cytometry, FaDu cells; FaDu cells; Table 3 experiment, alongside scDb hu225x3-43-Fc
T2 construct: Endogenous HER3 of human tumor cell lines (MCF-7, FaDu, BT474, A431, NCI-N87, A549, SKBR-3, Colo205, HCT-116, A375 and melanoma lines); also called cellular receptor HER3; cell surface expressed HER3

[3] = target: T2, HER3 on HER3-expressing tumor cells; test: flow cytometry, MCF-7 cells
[4] = target: T2, HER3 on HER3-expressing tumor cells; test: flow cytometry on BT474 cells, PE-labeled secondary antibody; the small table prints no unit, the axis is Concentration [nM] [panel BT474]
[5] = target: T2, HER3 on HER3-expressing tumor cells; test: flow cytometry on A549 cells, PE-labeled secondary antibody; the small table prints no unit, the axis is Concentration [nM] [panel A549]
[6] = target: T2, HER3 on HER3-expressing tumor cells; test: flow cytometry on FaDu cells, PE-labeled secondary antibody; the small table prints no unit, the axis is Concentration [nM] [panel FADU]
[7] = target: T2, HER3 on HER3-expressing tumor cells; test: flow cytometry, BT474 cells
[8] = target: T2, HER3 on HER3-expressing tumor cells; test: flow cytometry on MCF-7 cells, PE-labeled secondary antibody; the small table prints no unit, the axis is Concentration [nM] [panel MCF7]
[9] = target: T2, HER3 on HER3-expressing tumor cells; test: flow cytometry, SKBR-3 cells; SKBR-3 cells
[10] = target: T3, Fc fusion protein containing HER3 DI-DIII (aa 20-531; lacking DIV) (human, UniProt P21860 20-531); test: ELISA, coated HER3-Fc fragments at 10 µg/ml, anti-human Fab-HRP
T3 construct: also called DI-DIII Fc; not shown: IgG1 Fc part

HER3 DIV-Fc (aa 532-643) = target: T4, HER3 DIV-Fc (aa 532-643) (human, UniProt P21860 532-643); test: as above
T4 construct: not shown: IgG1 Fc part

[11] = target: T5, HER3 fragment aa 395-643 Fc fusion protein (part of DIII and the entire DIV) (human, UniProt P21860 395-643); test: as above
T5 construct: not shown: IgG1 Fc part

[12] = target: T6, HER3 fragment aa 359-643 Fc fusion protein (part of DIII and the entire DIV) (human, UniProt P21860 359-643); test: as above
T6 construct: not shown: IgG1 Fc part

[13] = target: T7, HER3 fragment aa 458-643 Fc fusion protein (part of DIII and the entire DIV) (human, UniProt P21860 458-643); test: as above
T7 construct: not shown: IgG1 Fc part

[14] = target: T8, Fc fusion protein containing HER3 DI-DII and a short part of DIII (aa 20-358) (human, UniProt P21860 20-358); test: as above
T8 construct: not shown: IgG1 Fc part

HER3-ECD protein = target: T9, HER3-ECD protein (Homo sapiens (Human), UniProt P21860 20-643); test: ELISA, immobilized HER3-ECD
T9 construct: also called receptor-ECD protein

[15] = target: T2, HER3 on HER3-expressing tumor cells; test: flow cytometry, A549 cells
[16] = target: T1, HER3-Fc fusion protein (Fc fusion …); test: quartz crystal microbalance (Attana), IgG 3-43 on chip, HER3-Fc as analyte (bivalent)
[17] = target: T2, HER3 on HER3-expressing tumor cells; test: flow cytometry on NCI-N87 cells, PE-labeled secondary antibody; the small table prints no unit, the axis is Concentration [nM] [panel NCI-N87]
[18] = target: T2, HER3 on HER3-expressing tumor cells; test: flow cytometry, FaDu cells (text; Table 3 prints 0.30)
[19] = target: T2, HER3 on HER3-expressing tumor cells; test: flow cytometry, FaDu cells; FaDu cells
[20] = target: T2, HER3 on HER3-expressing tumor cells; test: flow cytometry, NCI-N87 cells
[21] = target: T2, HER3 on HER3-expressing tumor cells; test: flow cytometry, MCF-7 cells; MCF-7 cells
[22] = target: T2, HER3 on HER3-expressing tumor cells; test: flow cytometry, FaDu cells
[23] = target: T10, HER3 fragment aa 20-550 Fc fusion protein (DI-III plus part of DIV) (human, UniProt P21860 20-550); test: ELISA, coated HER3-Fc fragments
T10 construct: not shown: IgG1 Fc part

[24] = target: T11, HER3 fragment aa 359-587 Fc fusion protein (human, UniProt P21860 359-587); test: ELISA, coated HER3-Fc fragments
T11 construct: not shown: IgG1 Fc part

[25] = target: T12, HER3 fragment aa 329-550 Fc fusion protein (human, UniProt P21860 329-550); test: ELISA, coated HER3-Fc fragments
T12 construct: not shown: IgG1 Fc part

[26] = target: T13, HER3-His (HER3 aa 27-599 of the extracellular domain fused C-terminally with a hexahistidyl-tag) (human, UniProt P21860 27-599); test: quartz crystal microbalance (Attana), IgG 3-43 on chip, HER3-his as analyte
T13 construct: also called soluble His-tagged HER3; His-tagged extracellular domain of HER3; not shown: C-terminal hexahistidyl-tag

[27] = target: T2, HER3 on HER3-expressing tumor cells; test: flow cytometry on A431 cells, PE-labeled secondary antibody; the small table prints no unit, the axis is Concentration [nM] [panel A431]
[28] = target: T2, HER3 on HER3-expressing tumor cells; test: flow cytometry, A431 cells
[29] = target: T14, mouse HER3-Fc fusion protein (extracellular region of mouse HER3 fused to a human Fc region) (mouse, UniProt Q61526 20-641); test: ELISA, coated mouse HER3-Fc, serial dilution of IgG 3-43, absorption at 450 nm
T14 construct: extracellular domain; not shown: human Fc region
T14 sequence (Q61526 20-641): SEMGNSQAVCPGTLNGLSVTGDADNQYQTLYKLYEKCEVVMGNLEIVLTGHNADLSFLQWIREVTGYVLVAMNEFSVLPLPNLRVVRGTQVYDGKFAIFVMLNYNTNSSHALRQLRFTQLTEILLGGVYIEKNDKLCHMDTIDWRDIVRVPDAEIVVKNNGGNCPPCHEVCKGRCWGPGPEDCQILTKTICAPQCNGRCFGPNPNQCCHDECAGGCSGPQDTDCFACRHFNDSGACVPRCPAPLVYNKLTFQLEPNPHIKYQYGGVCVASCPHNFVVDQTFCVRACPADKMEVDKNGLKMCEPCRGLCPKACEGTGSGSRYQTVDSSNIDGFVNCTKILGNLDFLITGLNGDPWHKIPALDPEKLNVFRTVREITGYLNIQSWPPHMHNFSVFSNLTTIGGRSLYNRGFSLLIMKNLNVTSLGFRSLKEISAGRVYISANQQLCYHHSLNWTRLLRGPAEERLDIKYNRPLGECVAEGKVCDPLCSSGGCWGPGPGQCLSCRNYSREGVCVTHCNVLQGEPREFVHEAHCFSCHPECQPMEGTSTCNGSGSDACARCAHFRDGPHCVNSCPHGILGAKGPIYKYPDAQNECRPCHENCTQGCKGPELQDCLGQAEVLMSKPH

- koff [1]: 0.000103 s⁻¹
- kon [1]: 468000 M⁻¹ s⁻¹
- EC50 [2]: 0.3 nM
- EC50 [3]: 0.037 nM
- EC50 [4]: 0.0743 nM
- EC50 [5]: 0.0536 nM
- EC50 [6]: 0.0302 nM
- EC50 [7]: 0.074 nM
- EC50 [8]: 0.0365 nM
- EC50 [9]: 0.022 nM
- binding result [10]: no binding
- binding result (HER3 DIV-Fc (aa 532-643)): no binding
- binding result [11]: no binding
- binding result [12]: no binding
- binding result [13]: no binding
- binding result [14]: no binding
- EC50 (HER3-ECD protein): 0.33 nM
- EC50 [15]: 0.053 nM
- Kd [16]: 0.22 nM
- EC50 [17]: 0.0266 nM
- EC50 [18]: 0.006 nM
- EC50 [19]: 0.003 nM
- EC50 [20]: 0.027 nM
- EC50 [21]: 0.021 nM
- EC50 [22]: 0.03 nM
- binding result [23]: no binding
- binding result [24]: no binding
- binding result [25]: no binding
- koff [26]: 0.00696 s⁻¹
- kon [26]: 622000 M⁻¹ s⁻¹
- EC50 [27]: 0.0445 nM
- EC50 [28]: 0.045 nM
- EC50 (read off the curve) [29]: ~3 nM
B1: IgG 3-43 (antibody)
heavy: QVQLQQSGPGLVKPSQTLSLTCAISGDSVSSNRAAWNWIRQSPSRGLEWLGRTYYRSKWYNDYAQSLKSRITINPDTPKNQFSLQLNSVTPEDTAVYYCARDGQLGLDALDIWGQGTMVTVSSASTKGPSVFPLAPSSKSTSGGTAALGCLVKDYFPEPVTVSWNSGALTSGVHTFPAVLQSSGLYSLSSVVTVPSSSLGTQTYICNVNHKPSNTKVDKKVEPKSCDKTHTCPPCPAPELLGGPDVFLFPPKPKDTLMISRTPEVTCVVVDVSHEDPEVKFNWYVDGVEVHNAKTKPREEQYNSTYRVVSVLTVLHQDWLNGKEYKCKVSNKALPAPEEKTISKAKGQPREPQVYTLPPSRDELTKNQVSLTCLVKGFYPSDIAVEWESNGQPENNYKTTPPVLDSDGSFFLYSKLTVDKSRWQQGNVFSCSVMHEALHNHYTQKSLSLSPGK
light: QAGLTQPPAVSVAPGQTASITCGRDNIGSRSVHWYQQKPGQAPVLVVYDDSDRPAGIPERFSGSNYENTATLTISRVEAGDEADYYCQVWGITSDHVVFGGGTKLTVLCGQPKAAPSVTLFPPSSEELQANKATLVCLISDFYPGAVTVAWKADSSPVKAGVETTTPSKQSNNKYAASSYLSLTPEQWKSHRSYSCQVTHEGSTVEKTVAPTECS
notes: also called 3-43-IgG; 3-43 IgG
